Data reported in paper PMC10673995, “Discovery of a novel cardiac-specific myosin modulator using artificial intelligence-based virtual screening” (Nature Communications, 2023).

Molecular target: Rabbit skeletal F-actin (rabbit), P68135

B1: bovine β-cardiac myosin S1, Q9BE39 1-1935; P85100 1-199 (domain or fragment)
heavy: MVDAEMAAFGEAAPYLRKSEKERLEAQTRPFDLKKDVFVPDDKEEFVKATILSREGGKVTAETEHGKTVTVKEDQVLQQNPPKFDKIEDMAMLTFLHEPAVLYNLKERYASWMIYTYSGLFCVTINPYKWLPVYNAEVVAAYRGKKRSEAPPHIFSISDNAYQYMLTDRENQSILITGESGAGKTVNTKRVIQYFAVIAAIGDRSKKEQATGKGTLEDQIIQANPALEAFGNAKTVRNDNSSRFGKFIRIHFGATGKLASADIETYLLEKSRVIFQLKAERDYHIFYQILSNKKPELLDMLLITNNPYDYAFISQGETTVASIDDAEELMATDNAFDVLGFTTEEKNSMYKLTGAIMHFGNMKFKLKQREEQAEPDGTEEADKSAYLMGLNSADLLKGLCHPRVKVGNEYVTKGQNVQQVVYAKGALAKAVYERMFNWMVTRINATLETKQPRQYFIGVLDIAGFEIFDFNSFEQLCINFTNEKLQQFFNHHMFVLEQEEYKKEGIEWEFIDFGMDLQACIDLIEKPMGIMSILEEECMFPKATDMTFKAKLFDNHLGKSSNFQKPRNIKGKPEAHFSLIHYAGTVDYNIIGWLQKNKDPLNETVVDLYKKSSLKMLSSLFANYAGFDTPIEKGKGKAKKGSSFQTVSALHRENLNKLMTNLRSTHPHFVRCIIPNETKSPGVIDNPLVMHQLRCNGVLEGIRICRKGFPNRILYGDFRQRYRILNPAAIPEGQFIDSRKGAEKLLGSLDIDHNQYKFGHTKVFFKAGLLGLLEEMRDERLSRIITRIQAQSRGVLSRMEFKKLLERRDSLLIIQWNIRAFMGVKNWPWMKLYFKIKPLLKSAETEKEIALMKEEFGRLKEALEKSEARRKELEEKMVSLLQEKNDLQLQVQAEQDNLADAEERCDQLIKNKIQLEAKVKEMTERLEDEEEMNAELTAKKRKLEDECSELKRDIDDLELTLAKVEKEKHATENKVKNLTEEMAGLDEIIAKLTKEKKALQEAHQQALDDLQAEEDKVNTLTKAKVKLEQHVDDLEGSLEQEKKVRMDLERAKRKLEGDLKLTQESIMDLENDKQQLDERLKKKDFELNALNARIEDEQALGSQLQKKLKELQARIEELEEELEAERTARAKVEKLRSDLSRELEEISERLEEAGGATSVQIEMNKKREAEFQKMRRDLEEATLQHEATAAALRKKHADSVAELSEQIDNLQRVKQKLEKEKSEFKLELDDVTSNMEQIIKAKANLEKMCRTLEDQMNEHRSKAEETQRSVNDLTSQRAKLQTENGELSRQLDEKEALISQLTRGKLTYTQQLEDLKRQLEEEVKAKNALAHALQSARHDCDLLREQYEEETEAKAELQRVLSKANSEVAQWRTKYETDAIQRTEELEEAKKKLAQRLQDAEEAVEAVNAKCSSLEKTKHRLQNEIEDLMVDVERSNAAAAALDKKQRNFDKILAEWKQKYEESQSELESSQKEARSLSTELFKLKNAYEESLEHLETFKRENKNLQEEISDLTEQLGSSGKTIHELEKVRKQLEAEKLELQSALEEAEASLEQEEGKILRAQLEFNQIKAEMERKLAEKDEEMEQAKRNHLRVVDSLQTSLDAETRSRNEALRVKKKMEGDLNEMEIQLSHANRLAAEAQKQVKSLQSLLKDTQIQLDDAVRANDDLKENIAIVERRNNLLQAELEELRAVVEQTERSRKLAEQELIETSERVQLLHSQNTSLINQKKKMEADLSQLQTEVEEAVQECRNAEEKAKKAITDAAMMAEELKKEQDTSAHLERMKKNMEQTIKDLQHRLDEAEQIALKGGKKQLQKLEARVRELENELEAEQKRNAESVKGMRKSERRIKELTYQTEEDRKNLLRLQDLVDKLQLKVKAYKRQAEEAEEQANTNLSKFRKVQHELDEAEERADIAESQVNKLRAKSRDIGTKGLNEE
light: not shown
B1 was tested, and the F-actin concentration dependence of the steady-state ATPase activity of bovine β-cardiac myosin S1 (NADH-coupled assay), Kapp in the absence and in the presence of 100 μmol/L F10 was 20 µmol/L.
